Reference: IntAct's records for PubMed 16511560

B1: Protein Mdm4 (Homo sapiens), O15151 (parent)
chain: MTSFSTSAQCSTSDSACRISPGQINQVRPKLPLLKILHAAGAQGEMFTVKEVMHYLGQYIMVKQLYDQQEQHMVYCGGDLLGELLGRQSFSVKDPSPLYDMLRKNLVTLATATTDAAQTLALAQDHSMDIPSQDQLKQSAEESSTSRKRTTEDDIPTLPTSEHKCIHSREDEDLIENLAQDETSRLDLGFEEWDVAGLPWWFLGNLRSNYTPRSNGSTDLQTNQDVGTAIVSDTTDDLWFLNESVSEQLGVGIKVEAADTEQTSEEVGKVSDKKVIEVGKNDDLEDSKSLSDDTDVEVTSEDEWQCTECKKFNSPSKRYCFRCWALRKDWYSDCSKLTHSLSTSDITAIPEKENEGNDVPDCRRTISAPVVRPKDAYIKKENSKLFDPCNSVEFLDLAHSSESQETISSMGEQLDNLSEQRTDTENMEDCQNLLKPCSLCEKRPRDGNIIHGRTGHLVTCFHCARRLKKAGASCPICKKEIQLVIKVFIA

Variants of: B1
Details: with ima4_human KPNA3, O00505
Chain of ima4_human KPNA3, O00505 (O00505 whole entry): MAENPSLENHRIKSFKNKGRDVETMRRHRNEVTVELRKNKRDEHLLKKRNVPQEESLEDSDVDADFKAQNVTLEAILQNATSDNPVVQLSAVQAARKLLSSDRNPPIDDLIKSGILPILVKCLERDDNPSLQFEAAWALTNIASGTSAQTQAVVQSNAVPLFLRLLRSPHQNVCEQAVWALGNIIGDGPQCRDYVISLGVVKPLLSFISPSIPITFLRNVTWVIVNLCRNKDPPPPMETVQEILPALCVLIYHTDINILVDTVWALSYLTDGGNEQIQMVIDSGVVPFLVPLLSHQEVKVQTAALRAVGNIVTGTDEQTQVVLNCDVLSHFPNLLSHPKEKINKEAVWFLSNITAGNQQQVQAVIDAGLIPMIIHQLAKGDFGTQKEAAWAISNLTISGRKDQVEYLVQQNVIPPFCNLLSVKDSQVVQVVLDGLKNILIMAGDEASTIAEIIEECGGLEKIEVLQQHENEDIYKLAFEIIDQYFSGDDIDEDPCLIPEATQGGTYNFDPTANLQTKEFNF

| effect of a mutation on the interaction | Variant |
| --- | --- |
| disrupting interaction | MTSFSTSAQCSTSDSACRISPGQINQVRPKLPLLKILHAAGAQGEMFTVKEVMHYLGQYIMVKQLYDQQEQHMVYCGGDLLGELLGRQSFSVKDPSPLYDMLRKNLVTLATATTDAAQTLALAQDHSMDIPSQDQLKQSAEESSTSRKRTTEDDIPTLPTSEHKCIHSREDEDLIENLAQDETSRLDLGFEEWDVAGLPWWFLGNLRSNYTPRSNGSTDLQTNQDVGTAIVSDTTDDLWFLNESVSEQLGVGIKVEAADTEQTSEEVGKVSDKKVIEVGKNDDLEDSKSLSDDTDVEVTSEDEWQCTECKKFNSPSKRYCFRCWALRKDWYSDCSKLTHSLSTSDITAIPEKENEGNDVPDCRRTISAPVVRPKDAYIKKENSKLFDPCNSVEFLDLAHSSESQETISSMGEQLDNLSEQRTDTENMEDCQNLLKPCSLCEKRPRDGNIIHGRTGHLVTCFHCARRLEKAGASCPICKKEIQLVIKVFIA [K468E] |
